From patent US20110091467A1 (CENTRE FOR ADDICTION AND MENTAL HEALTH, published 2011)

B1: [35S]-methionine-labelled D2[IL3-2] probe (peptide)
chain: EAARRAQELEMEMLSSTSPPERTRYSPIPPSHHQLTLPDPSHHGLHSTPDSPAKPEKNGHAKDHPKIAKIFEIQTMPNGKTRTSLKTMSRRKLSQQKEKKATQ
modifications: [35S]-methionine-labelled
notes: also called [35S]-D2[IL3-2]

What was measured:
[1] = molecular target: T1, GST fused DAT[NT3] (K35-D68) (UniProt P08515 1-218 = GST); experiment: in vitro binding assay: GST fusion on glutathione beads with the [35S]-D2[IL3-2] probe, autoradiography
T1 construct: also called GST-DAT[NT3]
T1 sequence (P08515 1-218, tags or fused parts left off): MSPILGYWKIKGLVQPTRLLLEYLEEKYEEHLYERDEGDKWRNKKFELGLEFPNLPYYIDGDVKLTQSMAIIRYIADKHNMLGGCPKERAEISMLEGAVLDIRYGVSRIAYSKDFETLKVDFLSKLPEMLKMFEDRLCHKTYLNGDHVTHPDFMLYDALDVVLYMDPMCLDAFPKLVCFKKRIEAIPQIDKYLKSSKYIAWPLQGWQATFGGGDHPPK
Description: (§1) The beads were then washed 4-6 times with PBS containing 0.5% Triton X-100 and eluted with 10 mM glutathione elution buffer. Eluates were separated by SDS-PAGE and visualized by autoradiography.

[2] = molecular target: T2, GST fused DAT[NT2] (A16-T43) (UniProt P08515 1-218 = GST); experiment: as above
T2 construct: also called GST-DAT[NT2]
T2 sequence (P08515 1-218, tags or fused parts left off): as above
Description: as §1

[3] = molecular target: T3, GST fused DAT[NT1] (M1-P26) (UniProt P08515 1-218 = GST); experiment: in vitro binding assay, FIG. 1G
T3 construct: also called GST-DAT[NT1]
T3 sequence (P08515 1-218, tags or fused parts left off): as above
Description: as §1

[4] = molecular target: B1; experiment: conclusion from the peptide competition in the in vitro binding assay (GST-DAT[NT1] with [35S]-D2[IL3-2])
Description: as §1

| Binder | binding result [1] | binding result [2] | binding result [3] | binding result [4] |
| --- | --- | --- | --- | --- |
| B1 | no binding | no binding | binds | – |
| MSKSKCSVGLMSSVV (also called DAT[NT1-1] peptide) [purified DAT[NT1-1] (M1-V15) peptide] | – | – | – | binds |
